In patent publication US20200405868A1, “GEL-FORMING POLYPEPTIDES” (priority 2018, published 2020):
“Also recorded” adds a separate entry of the source. Where no end group is shown, it is not given here. The star is where a group is joined. Palmitoyl = CCCCCCCCCCCCCCCC(=O)*

Assay: Compound gel-forming ability in water (visual inspection, tube tapping assay, tilted tube assay);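 also: peptides mixed with de-ionized water at about 22-25 °C, judged after 20 min by eye plus tube tapping (10 taps, moves counted) and 90° tilt mobility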
Assay type: physicochemical
Conditions: for gel formation at 11% w/w: 11% w/w in water; for gel formation in aqueous solution, 6% / propensity to form gels, chimeric or mutated polypeptides, 6% / propensity to form gels, wild-type counterparts, 6%: 6% w/w; for gel formation in aqueous solution, 11% / propensity to form gels, chimeric or mutated polypeptides, 11% / propensity to form gels, wild-type counterparts, 11%: 11% w/w; for propensity to form gels, chimeric or mutated polypeptides, 6% / propensity to form gels, chimeric or mutated polypeptides, 11% / propensity to form gels, chimeric or mutated polypeptides, 20% / propensity to form gels, wild-type counterparts, 11% / propensity to form gels, wild-type counterparts, 6% / propensity to form gels, wild-type counterparts, 20%: Table 5; for gel formation at 6% w/w: 6% w/w in water; for gel formation at 20% w/w: 20% w/w in water; for gel formation in aqueous solution, 20% / propensity to form gels, chimeric or mutated polypeptides, 20% / propensity to form gels, wild-type counterparts, 20%: 20% w/w; for Physical property at 11% w/w: 11% w/w in aqueous solution, room temperature
Method: Determination of Compound Gel-forming Ability in Water: To determine the solubility of polypeptides at room temperature, 1, 2, 3, 4, 5, 20, or 100 mg of a selected peptide is weighed and deposited into a clear plastic or glass vial and an aliquot of de-ionized water was then added to the vial. The procedure takes place in a room which is maintained at approximately 22-25° C. […] Insoluble peptides sample retained the particles or paste-like characteristics after 20 min of reaction. In addition to visual inspection, we performed a tube tapping assay and a tilted tube assay to differentiate the gelling status of peptide solutions.
To determine the solubility of polypeptides at room temperature, 1, 2, 3, 4, 5, 20, or 100 mg of a selected peptide is weighed and deposited into a clear plastic vial and an aliquot of de-ionized water was then added to the vial. The procedure takes place in a room which is maintained at approximately 22-25° C. Polypeptide sample which is considered soluble dissolves instantly in water and stays as a clear solution without obvious macroscopic change in viscosity at 20 min after mixing with water. […] If macroscopic particles of peptides remain in the solution at 20 min after mixing with water, the peptide is considered insoluble or precipitated at the given concentration. In this case, the quality of peptides is further judged by two other criteria: (1) mobility following a tapping of the tube (tube tapping assay) and (2) mobility flowing tilting the tube by 900 (tilted tube assay). In the first assay, the tube is tapped with the finger for 10 times, and the number of times that the body of the solution changes position is recorded. An aqueous solution such as water will have a score of 9 or 10 in this assay; meaning that the body of the liquid moves every time when one taps the tube. […] Those with moderate viscosity form liquid gel that changes the conformation slowly when the container tube is tapped with a finger or tilted. […] If macroscopic change in the position of the body of gel was observed 5-9 time out of 10 separate tapping tests, the gel is considered a liquid gel. The high viscosity of a liquid gel is further confirmed using the tilted tube assay. […] If the liquid or gel body takes more than 15 seconds to flow to the bottom of the tilted tube, the resulting aqueous mass is considered a liquid gel.
To allow systematic analysis of the gel-forming ability, the assay was first conducted at a peptide concentration of 11% w/w in aqueous solution. The peptides analyzed included functional regulators of cell surface receptors, enzymes, complement factors, antimicrobial peptides, immunomodulators, therapeutic peptides, cell-penetrating peptide, antigens, matrikines, and analogs of CGRP, adrenomedullin and adenomedullin 2 (or intermedin).

Substance: Pal-SSPHSY-miniPEG-ICVVQDWGHHRCT-NH2 [SEQ ID NO:244]
- gel formation at 11% w/w: semisolid gel
- gel formation in aqueous solution, 6% (Table 3): AS/IS (AS/IS for aqueous solution or insoluble)
- gel formation in aqueous solution, 11% (Table 3): SS (SS for semisolid gel)
- propensity to form gels, chimeric or mutated polypeptides, 6%: AS/IS
- propensity to form gels, chimeric or mutated polypeptides, 11%: SS (An ability to form semisolid gel is represented by an SS)

Substance: Pal-SSPHSY-miniPEG-KCNTATCATQRLANFLVHSSNNFGPILPPTNVGSNTY-NH2 ({Palmitoyl-Ser-Ser-Pro-H2N-Ser-Tyr-miniPEG}-KCNTATCATQRLANFLVHSSNNFGPILPPTNVGSNTY-NH2; ends and bridges not checked) [SEQ ID NO:218]
- gel formation at 6% w/w: semisolid gel
- gel formation at 11% w/w: semisolid gel
- gel formation in aqueous solution, 6% (Table 3): SS (SS for semisolid gel)
- gel formation in aqueous solution, 11% (Table 3): SS (SS for semisolid gel)
- propensity to form gels, chimeric or mutated polypeptides, 6%: SS (An ability to form semisolid gel is represented by an SS)
- propensity to form gels, chimeric or mutated polypeptides, 11%: SS (An ability to form semisolid gel is represented by an SS)

Substance: Pal-SSPHSY-miniPEG-PFRSVQ-NH2 [SEQ ID NO:242]
- gel formation at 6% w/w: liquid gel
- gel formation at 11% w/w: semisolid gel
- gel formation in aqueous solution, 11% (Table 3): SS (SS for semisolid gel)
- propensity to form gels, chimeric or mutated polypeptides, 11%: SS (An ability to form semisolid gel is represented by an SS)

Substance: Pal-SSPHSY-miniPEG-RC-(D-Ala)-H-(D-Phe)-RWC-NH2. [SEQ ID NO:227]
- gel formation at 30% w/w (30% w/w in water): form gel
- gel formation in aqueous solution, 11% (Table 3): AS/IS (AS/IS for aqueous solution or insoluble)
- gel formation in aqueous solution, 30% (Table 3, 30% w/w): SS (SS for semisolid gel)

Substance: Pal-SSPHSY-miniPEG-RGD-NH2 [SEQ ID NO:247]
- gel formation at 11% w/w: semisolid gel
- gel formation in aqueous solution, 11% (Table 3): SS (SS for semisolid gel)
- propensity to form gels, chimeric or mutated polypeptides, 11%: SS (An ability to form semisolid gel is represented by an SS)

Substance: Pal-SSPHSY-miniPEG-SDAAVDTSSEITTKDLKEKKEVVEEAEN-NH2 ({Palmitoyl-Ser-Ser-Pro-H2N-Ser-Tyr-miniPEG}-SDAAVDTSSEITTKDLKEKKEVVEEAEN-NH2) [SEQ ID NO:239]
- gel formation at 11% w/w: does not form gel
- gel formation in aqueous solution, 11% (Table 3): AS/IS (AS/IS for aqueous solution or insoluble)

Substance: Pal-SSPHSY-miniPEG-SLRRSSCFGGRMDRIGAQSGLGCNSFRY-NH2 [SEQ ID NO:238]
- gel formation at 11% w/w: semisolid gel
- gel formation at 20% w/w: semisolid gel
- gel formation in aqueous solution, 11% (Table 3): SS (SS for semisolid gel)
- gel formation in aqueous solution, 20% (Table 3): SS (SS for semisolid gel)
- propensity to form gels, chimeric or mutated polypeptides, 11%: SS (An ability to form semisolid gel is represented by an SS)
- propensity to form gels, chimeric or mutated polypeptides, 20%: SS (An ability to form semisolid gel is represented by an SS)

Substance: Pal-SSPHSY-miniPEG-SYSMEHFRWGKPVGKKRRPVKVYP-OH [SEQ ID NO:225]
- gel formation in aqueous solution, 11% (Table 3): AS/IS (AS/IS for aqueous solution or insoluble)
- gel formation in aqueous solution, 20% (Table 3): SS (SS for semisolid gel)

Substance: Pal-SSPHSY-miniPEG-VGVAPG-NH2 [SEQ ID NO:248]
- gel formation at 11% w/w: liquid gel
- gel formation at 20% w/w: semisolid gel
- gel formation in aqueous solution, 20% (Table 3): SS (SS for semisolid gel)
- propensity to form gels, chimeric or mutated polypeptides, 20%: SS (An ability to form semisolid gel is represented by an SS)

Substance: Pal-SSPHSY-miniPEG-YADAIFTNSYRKVLGQLSARKLLQDIMSR-NH2 [SEQ ID NO:236]
- gel formation in aqueous solution, 6% (Table 3): AS/IS (AS/IS for aqueous solution or insoluble)
- gel formation in aqueous solution, 11% (Table 3): AS/IS (AS/IS for aqueous solution or insoluble)

Substance: Pal-SSPHSY-miniPEG-YIGSR-NH2 [SEQ ID NO:246]
- gel formation at 11% w/w: semisolid gel
- gel formation in aqueous solution, 6% (Table 3): SS (SS for semisolid gel)
- gel formation in aqueous solution, 11% (Table 3): SS (SS for semisolid gel)
- propensity to form gels, chimeric or mutated polypeptides, 6%: SS (An ability to form semisolid gel is represented by an SS)
- propensity to form gels, chimeric or mutated polypeptides, 11%: SS (An ability to form semisolid gel is represented by an SS)

Substance: Pal-SSPHSY-miniPEG-YRSRKYSSVVY-NH2 ({Palmitoyl-Ser-Ser-Pro-H2N-Ser-Tyr-miniPEG}-YRSRKYSSVVY-NH2) [SEQ ID NO:249]
- gel formation at 11% w/w: semisolid gel
- gel formation in aqueous solution, 6% (Table 3): AS/IS (AS/IS for aqueous solution or insoluble)
- gel formation in aqueous solution, 11% (Table 3): SS (SS for semisolid gel)
- propensity to form gels, chimeric or mutated polypeptides, 6%: AS/IS
- propensity to form gels, chimeric or mutated polypeptides, 11%: SS (An ability to form semisolid gel is represented by an SS)

Substance: Pal-VGSKAF-NH2 (Palmitoyl-VGSKAF-NH2; SMILES CCCCCCCCCCCCCCCC(=O)N[C@H](C(=O)NCC(=O)N[C@@H](CO)C(=O)N[C@@H](CCCCN)C(=O)N[C@@H](C)C(=O)N[C@@H](Cc1ccccc1)C(N)=O)C(C)C; UniProt P06881 114-119, looked up, fragment) [SEQ ID NO:132]
- Physical property at 11% w/w (Table 2): AS/IS (AS/IS for aqueous solution or insoluble)

Substance: Pal-VGSNTY-NH2 [SEQ ID NO:133]
- Physical property at 11% w/w (Table 2): AS/IS (AS/IS for aqueous solution or insoluble)

Substance: Pal-VQKLAHQIYQFTDKDVAPRSKISPQGY-NH2 (Palmitoyl-VQKLAHQIYQFTDKDVAPRSKISPQGY-NH2; SMILES CCCCCCCCCCCCCCCC(=O)N[C@H](C(=O)N[C@@H](CCC(N)=O)C(=O)N[C@@H](CCCCN)C(=O)N[C@@H](CC(C)C)C(=O)N[C@@H](C)C(=O)N[C@@H](Cc1c[nH]cn1)C(=O)N[C@@H](CCC(N)=O)C(=O)N[C@H](C(=O)N[C@@H](Cc1ccc(O)cc1)C(=O)N[C@@H](CCC(N)=O)C(=O)N[C@@H](Cc1ccccc1)C(=O)N[C@H](C(=O)N[C@@H](CC(=O)O)C(=O)N[C@@H](CCCCN)C(=O)N[C@@H](CC(=O)O)C(=O)N[C@H](C(=O)N[C@@H](C)C(=O)N1CCC[C@H]1C(=O)N[C@@H](CCCNC(=N)N)C(=O)N[C@@H](CO)C(=O)N[C@@H](CCCCN)C(=O)N[C@H](C(=O)N[C@@H](CO)C(=O)N1CCC[C@H]1C(=O)N[C@@H](CCC(N)=O)C(=O)NCC(=O)N[C@@H](Cc1ccc(O)cc1)C(N)=O)[C@@H](C)CC)C(C)C)[C@@H](C)O)[C@@H](C)CC)C(C)C) [SEQ ID NO:102]
- Physical property at 11% w/w (Table 2): AS/IS (AS/IS for aqueous solution or insoluble)

Substance: Pal-VQKLPHSY-NH2 (Palmitoyl-VQKLPHSY-NH2; SMILES CCCCCCCCCCCCCCCC(=O)N[C@H](C(=O)N[C@@H](CCC(N)=O)C(=O)N[C@@H](CCCCN)C(=O)N[C@@H](CC(C)C)C(=O)N1CCC[C@H]1C(=O)N[C@@H](Cc1c[nH]cn1)C(=O)N[C@@H](CO)C(=O)N[C@@H](Cc1ccc(O)cc1)C(N)=O)C(C)C) [SEQ ID NO:117]
- Physical property at 11% w/w (Table 2): SS (SS for semisolid gel)

Substance: Pal-VQKLVDPSSPHSY-NH2 (Palmitoyl-VQKLVDPSSPHSY-NH2; SMILES CCCCCCCCCCCCCCCC(=O)N[C@H](C(=O)N[C@@H](CCC(N)=O)C(=O)N[C@@H](CCCCN)C(=O)N[C@@H](CC(C)C)C(=O)N[C@H](C(=O)N[C@@H](CC(=O)O)C(=O)N1CCC[C@H]1C(=O)N[C@@H](CO)C(=O)N[C@@H](CO)C(=O)N1CCC[C@H]1C(=O)N[C@@H](Cc1c[nH]cn1)C(=O)N[C@@H](CO)C(=O)N[C@@H](Cc1ccc(O)cc1)C(N)=O)C(C)C)C(C)C) [SEQ ID NO:112]
- Physical property at 11% w/w (Table 2): SS (SS for semisolid gel)

Substance: QQRFEWEFEQQ-miniPEG-RPKPQQFFGLM-NH2 [SEQ ID NO:285]
- gel formation in aqueous solution, 6% (Table 3): AS/IS (AS/IS for aqueous solution or insoluble)
- gel formation in aqueous solution, 11% (Table 3): AS/IS (AS/IS for aqueous solution or insoluble)

Substance: RGD-NH2 [SEQ ID NO:44, reference compound]
- Physical property at 11% w/w (Table 1): AS/IS
- gel formation in aqueous solution, 11% (Table 3): AS/IS (AS/IS for aqueous solution or insoluble)
- propensity to form gels, wild-type counterparts, 11%: AS/IS

Substance: RPKPQQFF-Sar-L-Met-(O2)-NH2 [SEQ ID NO:69, reference compound]
- gel formation in aqueous solution, 6% (Table 3): AS/IS (AS/IS for aqueous solution or insoluble)
- gel formation in aqueous solution, 11% (Table 3): AS/IS (AS/IS for aqueous solution or insoluble)
- gel formation in aqueous solution, 20% (Table 3): AS/IS (AS/IS for aqueous solution or insoluble)
- propensity to form gels, wild-type counterparts, 6%: AS/IS
- propensity to form gels, wild-type counterparts, 11%: AS/IS
- propensity to form gels, wild-type counterparts, 20%: AS/IS

Substance: RPKPQQFFGLM-NH2 [SEQ ID NO:23, reference compound]
- gel formation at 11% w/w: semisolid gel
- Physical property at 11% w/w (Table 1): AS/IS
- gel formation in aqueous solution, 11% (Table 3): AS/IS (AS/IS for aqueous solution or insoluble)
- propensity to form gels, wild-type counterparts, 11%: AS/IS

Substance: SDAAVDTSSEITTKDLKEKKEVVEEAEN-NH2 (ends and bridges not checked) [SEQ ID NO:13, reference compound]
- gel formation at 11% w/w: form self-assembling gels; also recorded: liquid gel
- gel formation at 20% w/w: semisolid gel
- gel formation in aqueous solution, 20% (Table 3): SS (SS for semisolid gel)
- propensity to form gels, wild-type counterparts, 20%: SS (An ability to form semisolid gel is represented by an SS)

Substance: SLRRSSCFGGRMDRIGAQSGLGCNSFRY-NH2 [SEQ ID NO:41, reference compound]
- gel formation at 11% w/w: does not form gel
- gel formation at 20% w/w: does not form gel
- Physical property at 11% w/w (Table 1): AS/IS
- gel formation in aqueous solution, 11% (Table 3): AS/IS (AS/IS for aqueous solution or insoluble)
- gel formation in aqueous solution, 20% (Table 3): AS/IS (AS/IS for aqueous solution or insoluble)
- propensity to form gels, wild-type counterparts, 11%: AS/IS
- propensity to form gels, wild-type counterparts, 20%: AS/IS

Substance: SVSEIQLMHNLGKHLNSMERVEWLRKKLQDVHNF [SEQ ID NO:25, reference compound]
- gel formation at 6% w/w: does not form gel
- gel formation at 11% w/w: does not form gel
- Physical property at 11% w/w (Table 1): AS/IS
- gel formation in aqueous solution, 6% (Table 3): AS/IS (AS/IS for aqueous solution or insoluble)
- gel formation in aqueous solution, 11% (Table 3): AS/IS (AS/IS for aqueous solution or insoluble)
- propensity to form gels, wild-type counterparts, 6%: AS/IS
- propensity to form gels, wild-type counterparts, 11%: AS/IS
